The source of these data is patent EP2225268B1.

The target in test [1] is Wild-type recombinant human NGAL dimer expressed in CHO cells (human) (UniProt P80188). Put plainly: … sandwich CMIA, capture HYB 211-01, detection acridinium-HYB 211-02; calibrator F, NGAL 1000 ng/mL.
Test [2] concerns the target Wild-type recombinant human NGAL dimer calibrators treated with DTT (human) (UniProt P80188). Described as above.
Test [3] has as its target Wild-type recombinant human NGAL monomer expressed in CHO cells (human) (UniProt P80188). Put plainly: … sandwich CMIA, capture HYB 211-01, detection acridinium-HYB 211-02; curve fit with monomer calibrators; target 1000 ng/mL.
Test [4] has as its target Wild-type recombinant human NGAL dimer expressed in CHO cells (human) (UniProt P80188). The test is described as above.
Test [5] concerns the target Wild-type recombinant human NGAL dimer calibrators treated with DTT (human) (UniProt P80188). The test is described as above.
Test [6] has the same target. In words: … sandwich CMIA, capture HYB 211-01, detection acridinium-HYB 211-02; DTT-treated against untreated dimer calibrator; target 5 ng/mL.
The target of test [7] is Wild-type recombinant human NGAL monomer expressed in CHO cells (human) (UniProt P80188). Put plainly: … sandwich CMIA, capture HYB 211-01, detection acridinium-HYB 211-02; curve fit with monomer calibrators; target 600 ng/mL.
The target of test [8] is Wild-type recombinant human NGAL dimer expressed in CHO cells (human) (UniProt P80188). The description is as above.
Test [9] deals with Wild-type recombinant human NGAL dimer calibrators treated with DTT (human) (UniProt P80188). The description is as above.
For test [10], the target named is Native NGAL purchased from Diagnostics Development (Uppsala, Sweden), non-reduced (UniProt P80188). In words: … sandwich CMIA, capture HYB 211-01, detection acridinium-HYB 211-02; non-reduced control sample.
Test [11] has as its target Wild-type recombinant human NGAL monomer expressed in CHO cells (human) (UniProt P80188). In words: … sandwich CMIA, capture HYB 211-01, detection acridinium-HYB 211-02; curve fit with monomer calibrators; target 50 ng/mL.
Test [12] deals with Wild-type recombinant human NGAL dimer expressed in CHO cells (human) (UniProt P80188). The description is as above.
Test [13] addresses Wild-type recombinant human NGAL dimer calibrators treated with DTT (human) (UniProt P80188). The description is as above.
The target of test [14] is Wild-type recombinant human NGAL monomer expressed in CHO cells (human) (UniProt P80188). Put plainly: … sandwich CMIA, capture HYB 211-01, detection acridinium-HYB 211-02; calibrator D, NGAL 250 ng/mL.
Test [15] deals with Wild-type recombinant human NGAL dimer expressed in CHO cells (human) (UniProt P80188). The description is as above.
In test [16] the target is Wild-type recombinant human NGAL dimer calibrators treated with DTT (human) (UniProt P80188). The description is as above.
The target of test [17] is Wild-type recombinant human NGAL monomer expressed in CHO cells (human) (UniProt P80188). Put plainly: … sandwich CMIA, capture HYB 211-01, detection acridinium-HYB 211-02; calibrator B, NGAL 5 ng/mL.
Test [18] has as its target Wild-type recombinant human NGAL dimer expressed in CHO cells (human) (UniProt P80188). The test is described as above.
The target of test [19] is Wild-type recombinant human NGAL dimer calibrators treated with DTT (human) (UniProt P80188). The test is described as above.
Test [20] shares this target. Put plainly: … sandwich CMIA, capture HYB 211-01, detection acridinium-HYB 211-02; DTT-treated against untreated dimer calibrator; target 50 ng/mL.
In test [21] the target is Wild-type recombinant human NGAL monomer expressed in CHO cells (human) (UniProt P80188). Put plainly: … sandwich CMIA, capture 1-2322-455, detection acridinium-1-903-430; curve fit with monomer calibrators; target 250 ng/mL.
Test [22] deals with Wild-type recombinant human NGAL dimer expressed in CHO cells (human) (UniProt P80188). The description is as above.
For test [23], the target named is Wild-type recombinant human NGAL monomer expressed in CHO cells (human) (UniProt P80188). Put plainly: … sandwich CMIA, capture 1-2322-455, detection acridinium-1-903-430; monomer calibrator plus TCEP; NGAL 1000 ng/mL.
Test [24] has as its target Wild-type recombinant human NGAL dimer calibrators with TCEP in the reaction mixture (human) (UniProt P80188). In words: … sandwich CMIA, capture 1-2322-455, detection acridinium-1-903-430; TCEP in reaction; NGAL 250 ng/mL.
Test [25] has the same target. In words: … sandwich CMIA, capture 1-2322-455, detection acridinium-1-903-430; TCEP in reaction; curve fit with monomer calibrators; target 50 ng/mL.

In the case of “anti-NGAL antibody HYB 211-01 from AntibodyShop A/S, Gentofte, Denmark”, the RLUs in test [1] was determined as 390000 RLUs; in test [2], 855000 RLUs; in test [14], 396000 RLUs; in test [15], 142000 RLUs; in [16] it was 378000 RLUs; in test [17] it was 12000 RLUs. Besides, the RLUs in [18] was 4050 RLUs; in test [19] it was 11400 RLUs. Moreover, the Curve Fit Results came out at 1000 ng/mL in test [3]; 245 ng/mL in test [4]; 924 ng/mL in [5]; 598 ng/mL in test [7]; 161 ng/mL in test [8]; 574 ng/mL in test [9]. In addition, the results for the Curve Fit Results in test [11], in [12] and in test [13] were 49.5 ng/mL, 14.1 ng/mL and 49 ng/mL, respectively. For the same molecule, the results for the % Increase due to DTT in [6] and in test [20] were 229% and 247%, respectively. Besides, the NGAL concentration detected in [10] was 13.7 ng/mL.

B1: antibody produced by murine hybridoma cell line 1-2322-455 having ATCC Accession No. PTA-8024 (antibody, V domains shown)
VH: EVQLVESGGGLVQPGGSLKLSCAASGFTFNNYYMSWVRQTPERRLEWVAYISSSGGSTYYSDSVRGRFTISRDTARNTLYLQMTSLKSEDTAMYYCARHFGDYSYFDYWGQGTTLTVSS
VL: DIQMTQSPASLSASVGETVTITCRASENFYSYLAWYQQKQGKSPQLLVYNAKTLAEGVPSRFSGSGSGTQFSLKINSLQPEDFGTYYCQHHYDIPLTFGAGTKLELKR
As for B1, the Curve Fit Results came out at 255 ng/mL in test [21], 71.7 ng/mL in test [22] and 24.5 ng/mL in test [25]. Besides, the RLUs is 1.95e+06 RLUs in test [23] and 535000 RLUs in test [24].
